The results in this text go back to patent publication US20030004317A1 (GlaxoSmithKline, published 2003).

The target in assay [1] is native cell surface receptor on R-SMC. Kind of assay: cell-based or functional assay.
In assay [2] the target is T1, human αvβ3 receptor protein purified from human placenta (human, UniProt P06756 31-1048; P05106 27-788).
T1 construct: mature; Detergent-solubilised whole heterodimer from tissue; coated on plates (ELISA), inserted in a hybrid bilayer membrane or passed in solution (BIAcore); also called vitronectin receptor; αβ3 receptor
Kind of assay: BIAcore, receptor immobilized in a hybrid bilayer membrane, mAb in solution (100, 25, 6 nM).
Description: (§1) The receptors was immobilized by inserting it into a phospholipid vesicle and producing a hybrid bilayer membrane on a hydrophobic sensor surface. […] Samples of the mAb were passed over this surface and the rates at which they bound and then dissociated from the surface were measured and analyzed using software provided with the instrument.

In assay [3] the target is T2, human αvβ5 receptor protein purified from human placenta (human, UniProt P06756 31-1048; P18084 24-799).
T2 construct: mature; Detergent-solubilised whole heterodimer from tissue
The description is as above.
Description: as §1

In assay [4] the target is T1, human αvβ3 receptor protein purified …. As to the kind of experiment: BIAcore, receptor immobilized in a hybrid bilayer membrane, mAb in solution.
Description: as §1

T1 sequence (P06756 31-1048, form in doubt, chain 1 of 2): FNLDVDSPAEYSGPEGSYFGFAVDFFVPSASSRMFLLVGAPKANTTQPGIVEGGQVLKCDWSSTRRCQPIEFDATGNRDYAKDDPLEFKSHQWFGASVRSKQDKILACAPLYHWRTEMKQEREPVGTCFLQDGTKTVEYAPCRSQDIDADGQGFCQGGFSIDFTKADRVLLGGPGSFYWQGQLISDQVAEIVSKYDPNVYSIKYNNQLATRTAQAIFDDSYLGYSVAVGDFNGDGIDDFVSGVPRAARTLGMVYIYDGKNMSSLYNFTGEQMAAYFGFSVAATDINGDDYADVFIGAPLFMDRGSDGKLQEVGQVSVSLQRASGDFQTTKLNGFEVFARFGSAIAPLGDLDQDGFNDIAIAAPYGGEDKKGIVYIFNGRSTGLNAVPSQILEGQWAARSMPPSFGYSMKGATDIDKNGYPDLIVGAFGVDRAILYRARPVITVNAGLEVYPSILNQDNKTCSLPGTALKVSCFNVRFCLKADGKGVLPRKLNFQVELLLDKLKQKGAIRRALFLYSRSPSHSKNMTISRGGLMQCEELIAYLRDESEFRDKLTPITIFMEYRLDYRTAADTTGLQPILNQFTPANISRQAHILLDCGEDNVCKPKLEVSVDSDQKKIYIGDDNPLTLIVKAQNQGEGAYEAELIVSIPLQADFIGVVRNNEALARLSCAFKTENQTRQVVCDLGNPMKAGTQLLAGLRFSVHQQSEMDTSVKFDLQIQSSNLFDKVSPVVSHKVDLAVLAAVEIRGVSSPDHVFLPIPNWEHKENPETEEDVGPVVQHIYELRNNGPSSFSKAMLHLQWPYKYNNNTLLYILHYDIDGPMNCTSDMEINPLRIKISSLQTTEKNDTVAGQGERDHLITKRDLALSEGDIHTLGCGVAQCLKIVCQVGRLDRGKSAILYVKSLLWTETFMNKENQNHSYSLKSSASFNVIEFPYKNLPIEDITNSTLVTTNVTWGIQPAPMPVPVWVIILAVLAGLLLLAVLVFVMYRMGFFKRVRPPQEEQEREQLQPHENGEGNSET
T1 sequence (P05106 27-788, form in doubt, chain 2 of 2): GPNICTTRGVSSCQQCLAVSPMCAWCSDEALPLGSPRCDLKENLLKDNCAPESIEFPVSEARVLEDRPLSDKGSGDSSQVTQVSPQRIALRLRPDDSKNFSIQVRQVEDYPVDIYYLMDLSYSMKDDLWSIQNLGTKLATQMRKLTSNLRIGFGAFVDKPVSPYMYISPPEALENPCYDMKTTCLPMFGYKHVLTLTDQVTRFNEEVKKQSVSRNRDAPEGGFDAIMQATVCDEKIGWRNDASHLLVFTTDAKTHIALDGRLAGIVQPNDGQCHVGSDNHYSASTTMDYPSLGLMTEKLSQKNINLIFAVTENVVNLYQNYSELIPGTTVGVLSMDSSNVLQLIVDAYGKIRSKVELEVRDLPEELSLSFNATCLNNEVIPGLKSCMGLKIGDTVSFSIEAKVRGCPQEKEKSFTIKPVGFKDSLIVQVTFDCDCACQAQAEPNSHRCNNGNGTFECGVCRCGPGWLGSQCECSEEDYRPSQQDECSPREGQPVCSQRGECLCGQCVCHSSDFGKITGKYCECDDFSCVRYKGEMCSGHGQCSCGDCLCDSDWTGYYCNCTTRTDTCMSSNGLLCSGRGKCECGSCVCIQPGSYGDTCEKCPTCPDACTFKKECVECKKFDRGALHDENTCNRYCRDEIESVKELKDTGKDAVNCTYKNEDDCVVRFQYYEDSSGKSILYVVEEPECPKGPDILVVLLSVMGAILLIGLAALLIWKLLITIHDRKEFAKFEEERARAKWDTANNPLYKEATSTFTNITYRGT
T2 sequence (P06756 31-1048, form in doubt, chain 1 of 2): as the sequence (P06756 31-1048, form in doubt, chain 1 of 2) above
T2 sequence (P18084 24-799, form in doubt, chain 2 of 2): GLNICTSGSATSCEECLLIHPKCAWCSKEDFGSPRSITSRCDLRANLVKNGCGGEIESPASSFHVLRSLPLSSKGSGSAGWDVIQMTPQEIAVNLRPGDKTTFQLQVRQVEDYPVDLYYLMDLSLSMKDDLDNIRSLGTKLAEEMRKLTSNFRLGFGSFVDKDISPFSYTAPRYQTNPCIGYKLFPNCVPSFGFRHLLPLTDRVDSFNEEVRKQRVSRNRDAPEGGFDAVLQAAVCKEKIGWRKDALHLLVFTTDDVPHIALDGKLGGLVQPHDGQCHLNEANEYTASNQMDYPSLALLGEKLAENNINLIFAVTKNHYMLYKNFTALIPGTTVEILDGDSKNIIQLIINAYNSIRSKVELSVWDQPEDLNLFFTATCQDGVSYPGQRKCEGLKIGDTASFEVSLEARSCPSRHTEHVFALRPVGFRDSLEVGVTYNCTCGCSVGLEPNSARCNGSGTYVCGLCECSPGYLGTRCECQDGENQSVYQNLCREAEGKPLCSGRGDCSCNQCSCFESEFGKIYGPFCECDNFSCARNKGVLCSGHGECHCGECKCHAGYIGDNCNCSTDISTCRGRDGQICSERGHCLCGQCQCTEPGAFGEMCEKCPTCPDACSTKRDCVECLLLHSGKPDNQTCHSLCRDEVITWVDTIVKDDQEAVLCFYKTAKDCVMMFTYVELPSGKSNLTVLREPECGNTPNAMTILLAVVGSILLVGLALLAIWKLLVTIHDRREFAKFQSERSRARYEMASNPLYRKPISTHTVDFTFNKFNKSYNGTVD

Regarding murine monoclonal antibody LM609, in assay [1], the Inhib (%) R-SMC (50 µg/ml) turned out to be 43%.

B1: murine monoclonal antibody D12 (antibody, V domains shown)
VH: EIQLQQSGPEVVKPGASVKVSCKASGYAFTSYNMYWVKQSHGKSLEWIGYIDPYNGDTFYNQKFKGKATLTVDKSSSTAYMHLNSLTSEDSAVFYCARQNYGSFAYWGQGTLVTVSA
VL: DIVLTQSPATLSVTPGDSVSLSCRASQSISNHLHWYQQRSHESPRLLIKYASQSISGIPSRFRGSGSGTDFTLNINILETEDFGMYFCQQSNSWPFTFGSGTNLEIKR
As to B1, the Inhib (%) R-SMC (50 µg/ml) in assay [1] worked out at 66%. In addition, in assay [2], binding was characterised by a dissociation constant (Kd) of 1300 pM.

B2: murine monoclonal antibody B9 (antibody, mouse IgG1, V domains shown)
VH: QVQLQQSGAELMKPGASVKISCKATGYTFSSYWIEWVKQRPGHGLEWIGEILPRSGNTNYNEKFKGKATFTAETSSNTAYMQLSSLTPEDSAVYYCSSRGVRGSMDYWGQGTSVTVSS
VL: DIQMTQTTSSLSASLGDRVTITCRSSQDISNFLNWYQQKPDGTVKLLIYYTSTLHSGVPSRFSGSGSGTDYSLTISNLEQEDIATYFCQQGNTLPWTFGGGTNLEIKR
notes: also called mAb B9; Murine B9
Turning to B2, the figures for the Kd in assay [3] and in assay [2] were 110 pM and 290 pM, respectively. Also, the “fold higher binding affinity (KD) than D12” value in assay [4] is about 5 fold.
